Reference: patent publication US20260008865A1

Columns and labels:
[1] = biological target: SelSP1 (PSGL-1 sulfopeptide); assay: SPR (SensiQ Pioneer), antibody captured on Protein G, SelSP1 as analyte, 25 °C, 1:1 model
[2] = biological target: SelSP1 (PSGL-1 sulfopeptide); assay: SPR; SelSP1 surface (FC2) blocked with 40 µg/mL antibody, then 990 nM CCL27 as competitor; Rep. 1
[3] = biological target: SelSP1 (PSGL-1 sulfopeptide); assay: SPR; SelSP1 surface (FC2) blocked with 40 µg/mL antibody, then 990 nM CCL27 as competitor; Rep. 2
[4] = biological target: SelSP1 (PSGL-1 sulfopeptide); assay: SPR; SelSP1 surface (FC2) blocked with 40 µg/mL antibody, then 990 nM CCL27 as competitor; Rep. 3
[5] = biological target: SelSP1 (PSGL-1 sulfopeptide); assay: SPR; SelSP1 surface (FC3) blocked with 40 µg/mL antibody, then 990 nM CCL27 as competitor; Rep. 1
[6] = biological target: SelSP1 (PSGL-1 sulfopeptide); assay: SPR; SelSP1 surface (FC3) blocked with 40 µg/mL antibody, then 990 nM CCL27 as competitor; Rep. 2
[7] = biological target: SelSP1 (PSGL-1 sulfopeptide); assay: SPR; SelSP1 surface (FC3) blocked with 40 µg/mL antibody, then 990 nM CCL27 as competitor; Rep. 3
[8] = biological target: SelSP1 (PSGL-1 sulfopeptide); assay: SPR; SelSP1 surface blocked with 40 µg/mL antibody, then 990 nM CCL27 as competitor; average over FC2 and FC3 replicates
[9] = biological target: SelSP1 (PSGL-1 sulfopeptide); assay: SPR; summary sentence in the description; target printed as PSGL-1, but the worked example used the PSGL-1 sulfopeptide SelSP1

Kd [1]: 16.4 nM
koff [1]: 0.00497 s⁻¹
kon [1]: 303000 M⁻¹ s⁻¹
Percent CCL27 Inhibition [2]: 57.1%
Percent CCL27 Inhibition [3]: 50.6%
Percent CCL27 Inhibition [4]: 53.5%
Percent CCL27 Inhibition [5]: 50.5%
Percent CCL27 Inhibition [6]: 43.1%
Percent CCL27 Inhibition [7]: 47%
Percent CCL27 Inhibition (Avg.) [8]: 50%
Kd [9]: 16.6 nM
B1: Parental antibody (antibody, V domains shown)
VH: DVQLVESGGGLVQPGGSRKLSCAASGFTFSSFGMHWVRQAPEKGLEWVAYISSASSTIYYADTVKGRFTISRDNPKNTLFLQMTSLRSEDTAMYYCASSYGYWGQGTTLTVSS
VL: DVVMTQTPLSLPVSLGDQASISCRSSRSLVHSNGNTYLHWYLQKPGQSPQLLIYKVSNRFSGVPDRFSGSGSGTDFTLKISRVEAEDLGVYFCSQTTHVPLTFGAGTRLELKR
